A short description of this data set: soluble on expression in E. coli; label from the status in PepcDB or PDB records.
Regarding “MGSDKIHHHHHHMSQATAKVNREVQAFLQDLKGKTIDHVFFVACGGSSAIMYPSKYVFDRESKSINSDLYSANEFIQRNPVQLGEKSLVILCSHSGNTPETVKAAAFARGKGALTIAMTFKPESPLAQEAQYVAQYDWGDEALAINTNYGVLYQIVFGTLQVLENNTKFEQAIEGLDQLQAVYEKALKQEADNAKQFAKAHEKESIIYTMASGANYGVAYSYSICILMEMQWIHSHAIHAGEYFHGPFEIIDESVPFIILLGLDETRPLEERALTFSKKYGKKLTVLDAASYDFTAIDDSVKGYLAPLVLNRVLRSYADELAEERNHPLSHRRYMWKVEY”, the “soluble on expression in E. coli” value is “not soluble”.

As to “MSPPSTIAYVLPPGFKFVPNDEEVIHCYLKPYSDGNTNVLLHVPIHLVNIYESNPQTLSEEFQKGNDKEWFIITERNKVDQGLSQTKRVGYGAKRQKRVDTNGGYWHATVAAQKINAGDGVVRNKRPLAYYVGKPSEGVKTDWLMQEYSLDHSSHNNDKDYTLCKIYLTPQATKMNKEVGEEKKKQKKGEAVVSVAPVEALEEQLPCNVEYHQPLAPLDSCQPQPHDLAYQQQQFCPGPLDSYQPQPHDMENQQPHNEKLKKEEDVEQLDLHQPDQGKGC”, the “soluble on expression in E. coli” value is recorded as “not soluble”.

With “SDESDLPSAMPAVPAFGVEERNMVSGVLTLAERSIRSIMTPRTDVSWVNIDDDAATIRQQLTAAPHSFFPVCRGSLDEVVGIGRAKDLVADLITEGRVRRNRLRDPIIVHESIGILRLMDTLKRSRGQLVLVADEFGAIEGLVTPIDVFEAIAGEFPDEDELPDIVAESE”, the “soluble on expression in E. coli” value is “soluble”.

On to “MSLVAVRSAHLNPDQQFELETWIASLTQEGKTAAKLTAVYRDCEQLLAGNPQGPLLLWRGREMIEILITLSMDRPTLVAALLFPIATSGVLDNESLEEGYGREVVKLIHGVEEMAAIGQLNVTMHGSEASAQVDNVRRMLLAMVDDFRCVVIKLAERICNLREVKNEPDEVRRVAAKECANIYAPLANRLGIGQLKWEIEDYAFRYQQPDTYKQIAKQLSERRIVREQYIRDFVSDLRAEMKQSGINAEVSGRPKHIYSIWRKMQKKSLAFDELFDVRAVRIIADKLQDCYAALGIVHTKYKHLPNEFDDYVANPKPNGYQSIHTVILGPEGKTIEIQIRTKQMHEESELGVAAHWKYKEGSSAARSGYDEKITWLRKLLDWQEEMSDSGEMLDELRSQVFDDRVYAFTPKGDVVDLPMGATPLDFAYHIHSEVGHRCIGAKVAGRIVPFTHKLQMGDQVEIITAKEPNPSRDWLNPSLGFVHSGRARAKINAWFRKQSREKNLEAGREILEIELAKIGANLKHAEAYALKRFNVNSVDEMYVGIGSGDLRINQIVNHINALVNKPTAEEEDKLALEKLQENKTLTPNRPHKDAVVVEGVDNLMTHLARCCQPIPGDEIRGYITQGRGISVHRSDCEQLEELSLHAPERIIDTVWGSGFVGSYLLTVRVEAMERSGLLKDITTLLANEKVKVASMKSRSDYKRQIIIMDFDLEVNNVEALARVSKRIEQIKDVMLVKRLGEGHHHHHH”, for which the “soluble on expression in E. coli” value is recorded as “not soluble”.

In the case of “MINRVPTNIITGFLGVGKTTAILHLLATKPAHEKWAVLVNEFGEIGIDGAIMSEQGAMIKEVPGGCLCCTAGVPMSVGINALLRQKPDRLIIEPTGLGHPKQVVATLISEQYQPYVDLKATIALMDPRHLSMDKYRSNQNFNDQLASADIVLGNKVDQCSSSDIDAFNDWVTDQTPAKTFSQLIKQGQFPIELLDMPRLVGHASTHIDSHHHHHAADEPQFQLAPQQPFLRKENRGQGYFSCGWLFGAEYQFNFDLLFQLLNDLTAERVKGVLNTDRGCYAFNVANGVVSVTEMSLDGFESRLEVIDSQLMPWSELESILLKIAGIPQALEHHHHHH”, the “soluble on expression in E. coli” value is “not soluble”.

“MGSDKIHHHHHHMYSFVARQPILNQHRQTVAYELLFRMDITNKFPDVSPEFATAQLISDQFLTNPLARSVVEQPYYINFPHQMLINGQAEVLPQEKVVIEILENAAPDNDLFAAVKKLKRKGFKIALDDFSMDSEWDRFLPYIDVIKFDLTLSTFGDIENFIKRTKQRKLIYLAEKVETHEQYMQSKKLGISLFQGYFFSRPEMIKSKKLVNKSSNTIRLLREVNKPEINYAAIEELVCADLSLYYKLMRHITNIKYNTRFGITATSMSFRSMAMLLGQRELKRFVSLISITNSNENKPSELYRTSLIRARFFELLYASFNVKEDTTEAFLCGLLSLLDAVLDSPMPLLLSQIALSEKINQSLLENTGELAVYLTLIAKYEQQEWEELERLLIQLGIDEENFFTMIMEATQWADEIL”: the “soluble on expression in E. coli” value is reported as “not soluble”.

For “MRYLSNLLCLTLTFIVCFGAERDADEEAYVLMNLLKQSIDMDQTEALPGFVSRDFTYDTCKGIWNRDKYMEYLKVFSSRPDGGMQPMSTDWKVTNAHFNDNTLYFNIHNYNQHLAIYPDLEFEAKKIGKDERYILTRGKISKCGTLEKEY”, the “soluble on expression in E. coli” value is on record as “not soluble”.

Consider “MGSDKIHHHHHHMDFVDVPAVTRDATILSLRDVSRKLVRELGFMRSTLANSDLAPSAVHAVLEIGMKPGITAKDLATILRLDKSNTSRQIARLEAAGFVERRVSSDDARSSELYLSAEGKSLRARIDRFATSQVSNALRHMAPADQQALLRSLALYANALAQDNAGNAPPATPEAVQIIEGYQPGCIGDIASLHGRFYAAHWGFGAFFEKRVATELAAFAGSLPVDGKALWLYVENGRSLASLAIDGDKTTGIAHLRWFIVDESLHGSGIGRELMARAMRFVETQGFRETHLWTFKGLEAARHLYESHGFRLSEEFEGSQWGTTVTEQRFNRV”, for which the “soluble on expression in E. coli” value is given as “not soluble”.

For the sequence “MGSDKIHHHHHHMEVNRLSALTPPMGWNSWDCYGASVTEEEVLGNAEYMANHLKKYGWEYIVVDIQWYEPTANSSAYNPFAPLCMDEYGRLLPATNRFPSAKNGAGFKPLSDAIHDLGLKFGIHIMRGIPRQAVYENSPVLGSTKTAREIAHTNSICPWNTDMYGVDPTKEGAQSYYNSLFELYAQWGVDFVKVDDIAASRLYDTHLEEIKMIQRAIQACGRPMVLSLSPGPAPIKYAHHFKTNANMWRITDDFWDDWSLLYQMFERCEVWEKHIGTGHWPDCGMLPLGHIGIRSVDGPGGDRWTRFTKDEQLTMMNLWAICHSPLMFGGELRDNDEWTLSLLTNEGILSINQKSVLNRFVYREEDKVAWAANGRNGEAYVALFNLHDQQKTLQFRLDMVGIMETVQLFNVWDRSFLQSLAPSESFQIELKPHQSMMLKLSPDR”, the “soluble on expression in E. coli” value was “not soluble”.

As for “MTPLQQAQLSPQEEAVFDGDAISGSGLRFSELTRPVNLLVMGMSVLPPDVQNPPTETQNLRYLPQVNSFDGLADVMLMVKFDPETKKIAMLSIPRDTRTRIEGHGVRKINAANVEGGPALTATTVSNLLGGVGIDRYIRINVLGVGKLIDALGGVTVYVPKDMKYQDHSQHLYINLKAGKQHLNGDQVLQLLRFRHDELGDIGRIQRQQMVMRALMDQALNPVTVAQLPKILNVVKDNIDTNLTVEELVALVGFGVRTNRTNMQMLMLPGRFSEPNEYNASYWIPSKNGIAKLMAQHFGLESLSENPVNDPTAVRVAIQDSTGSDRSQLRPLINALEKAGYRNVYVANAWTEPLEVTNIIAQQGDGNSAESIRNALGFGEVRVESTGSLNSDISIQVGKDWLQQKSLLEDSIKFLEHHHHHH”, the “soluble on expression in E. coli” value is listed as “soluble”.

As for “MGSDKIHHHHHHMSYVAVKGGSTAIRAAHRLVRKRMRGDPDAPEITPRQICEQMHLGVDRVMAEASLYDEDLAARAMLQAQGDMIEAIFLLRAYRATLTRFLDSTPLAMDTMRVQRRISAAFKELPGGQQLGQTYDYSHRLFGYFDRLETKSDIESGKTEVPPEPMTSVMDLLEKEGLMELAAACEPPAENMQQDITRHPLLFPATRAQRLQSLARGDEGFLLSMAYSTQRGYGQNHPFIAELRMGDVTVEITPPELGFPIEIGTITVTECQMINQFQARSPEEAAFTRGYGLVFGHSERKAIAMALVDRALRAGELGEEALSPAQNEQFVLSHCDNVETTGFVEHLKLPHYVDFQSEIQTLRHLHKTAAKDGADRV”, the “soluble on expression in E. coli” value is listed as “not soluble”.

On to “MGSDKIHHHHHHMVLIRLRPCSAVEKDLIHACSPSASALVSKNEKAMKRFFLTTAILLSSVLASYADSLPSAVRDTVIRAGEKTIMIKDGEDDFEVIIQESMPSGDTIRNEKIFRGVYRNGRSIEQRFRNTLINRPNRDKEMPVWGTYGFGSFEWGELKVDDSHSDIGRSHSYRVSIQIFGDIYRLNKYLVLTYALGWDADIYRITDSKTLKNIDGVTTVVDVPGRAECTLTAAYLKAMPALAFNGVRSNLTVYIAPVLRAKVYSAATTDGPDGRLEKLRRVKLNTFSVEARAGINYRNAGIFFTYSLTPLFRSGKGPKLHPYTIGLSLSL”, for which the “soluble on expression in E. coli” value is listed as “not soluble”.

The record behind these values is the DeepSol protein solubility set.
